Source: the DeepSol protein solubility set

assay: soluble on expression in E. coli; label from the status in PepcDB or PDB records

**Q.** For “MTDYAHKMSLDLRMIDLERYSDHIDNKASHCAKMLNDYYQKFDAQKGTQFVFSDLGTYKPGGEFNVYSEIKRKLVEDYHIPSHEVRFIQECKNEKAKKAMVDAMNRGDIRIIFGSTSMLGTGVNAQQRAVAIHHLDTPWRPSDLEQRNGRAVRKGNMIAKEFADNKVDVIIYAVERSLDSYKFNLLHNKQLFINQLKTNTLGSRTIDEGSMDEDGGMNFSEYVAVLSGNTNLLEKAKLDKKIATLESERKNFLRERDTATGKLAEIDSSVSFHSDKIKEAKEDLACFEKRVERDAEGLPINKLTIKGVEGSTDIKVIAARLQEIEEKARTKGEYNKIGEIYGFSIMVKTENSSKELFDCSSNRFFVKGQESIYYTYNNGKLASDPKLACQNFINALERIPKVIESHEKEKEKVSANKEVYMTIAGGSWKKEDELRSLKGQAAELDRKIALTLAPPEEEKETEEEKQVQEHGISGKEPIQETRYSAEPISHKQAEKTPPSEQVTPPPTRQPRSNEPGGYIETQMEIG”, which “soluble on expression in E. coli” value is on record?
**A.** not soluble

**Q.** Which “soluble on expression in E. coli” value does the source give for “GPGSMPRGSSKSKKEVSEEPKTTGGSGGDATETSPPTPKAKKGKGGDKMLVNEPNDEKHTVEDARTVQTPSDHETSAARKKPPPKDVKDEKKSEPAHGGGRLLKNNPNDEVVPVEGMHNVATPRSGLITTESDGAKGTMLRNAPHDEAIPVSGHAITMDTPKRTIDVHPGTITNTDDDDDPKSTEEEESVPIGRTRGYCNPRPEAINLEAEVPETTAPNLGYKPQEYAMVNANASREVQELFKRILDYQPQTPELPAKLRPFIPDYVPSIGDLDPFCKIPRPDGKPDGLGIYVLDEPSVAQSNPAVVLLELRATNIHSVGGLAEAVDSFEDAANRPEVIDRWINDVKKVHYKKPLPTINYQKPMPEIDLLLQVWPQEFEEFLNSDVQFPPPQIDLDLDQYVRALCCILDIPTYTSLIDSLHVMFTLYQEFRANQHFQHE” here?
**A.** soluble

**Q.** With “MKKLSFFLIATLSLGACSTATSPTGRHQVFSGVSQQQLNQLGEQAFVEIKAKEKISGNVRQNAYVRCVVDALVTELPLQWRHVKWETVLFLNEEPNAFALPGGKVGVNTGIFRAAKNQEQLAAVLGHEIGHVVSRHHEERITWQLGTQAGLGLLGVLAGTAYGDSAATAVNQIGGLTAQAAFLLPGSRTQEREADIVGQRLMAQAGFDPIQAVYLWKNMLAIAGQRPPQWLSTHPDPTNRIRQLEQQSAVLASVYAQARDAGRVPHCSPAALEHHHHHH” as the sequence, how does the “soluble on expression in E. coli” value read?
**A.** not soluble

**Q.** For “MSLQKVKLPLTLDPVRTAQKRLDYQGIYTPDQVERVAESVVSVDSDVECSMSFAIDNQRLAVLNGDAKVTVTLECQRCGKPFTHQVYTTYCFSPVRSDEQAEALPEAYEPIEVNEFGEIDLLAMVEDEIILALPVVPVHDSEHCEVSEADMVFGELPEEAQKPNPFAVLASLKRKEGGSHHHHHH”, which “soluble on expression in E. coli” value is on record?
**A.** soluble

**Q.** With “MAGDPMERIESRRARTVRQMLNIRKITYLEKTRKGIEMNSKTIGIDIGGANTKLASSDGTIVELHYLPLWKNTMLPEVLKEISQRLKPENVAVVMTGELADCFEDKEQGIRFIKENVDSAFGSGKVSYINSQGRFRKENDPLRDLAAANWAASARLIGEEIGDCIFVDVGSTTSDIIPVISGEHRAGHTDFERLLRSELVYAGTLRTNLAALLEKVKLEKGICRTSSELFATTADAYLILGEINEDKYTCETADGVGRSKIEAMRRIARLVCADLSEVGETEVYEIAEQVKEKQVSALTEAISEVAERNRLEKIAAAGLGEFLISEAAERLGFECISVAGRWGEEISKVFPAYAAARLLDKYSELEHHHHHH” as the sequence, how does the “soluble on expression in E. coli” value read?
**A.** not soluble

**Q.** For “MSKSGVPRLLTASERERLEPFIDQIHYSPRYADDEYEYRHVMLPKAMLKAIPTDYFNPETGTLRILQEEEWRGLGITQSLGWEMYEVHVPEPHILLFKREKDYQMKSQQRGG”, which “soluble on expression in E. coli” value is on record?
**A.** soluble

**Q.** Which “soluble on expression in E. coli” value does the source give for “MGSDKIHHHHHHMTVAQLLIPQMYSSKSTGEAVGRHPLNFYESPSWFTTELLRHVRLSGVVGEPCVGMGAIASLLSVWPYTKQMWTNDIDPHKSANYQMDATLSESWAKFPDCDWICTNPPYSEFAAPIIKNAYCKAHVGVAAFLLTSFLEPCDDRADFLQQHPPSLVLIMPRFCFRKDKRGTRWATDNVTISCFVWDKRATGQQIIVRPKSAIAGFYKNPEQAISQERAEKIVRAIAKGEL” here?
**A.** not soluble

**Q.** For “SLNSPIATVEVFTLTQPRKVPYLGALREGEVVNPNGYIVRKGNRTVYPTFDRSVLVRMTTEAGTVGWGETYGIVAPGAVAALINDLLAGFVIGRDASDPSAVYDDLYDMMRVRGYTGGFYVDALAALDIALWDIAGQEAGKSIRDLLGGGVDSFPAYVSGLPERTLKARGELAKYWQDRGFNAFKFATPVADDGPAAEIANLRQVLGPQAKIAADMHWNQTPERALELIAEMQPFDPWFAEAPVWTEDIAGLEKVSKNTDVPIAVGEEWRTHWDMRARIERCRIAIVQPEMGHKGITNFIRIGALAAEHGIDVIPHATVGAGIFLAASLQASSTLSMLKGHEFQHSIFEPNRRLLDGDMDCREGRYHLPSGPGLGVRPSEAALGLIERI”, which “soluble on expression in E. coli” value is on record?
**A.** soluble

**Q.** For “MYRAIGMIELTSVARGIYATDQMLKIAYVDVVSATPVCPGKYIAIVQGDVAAVESSISTGIAISGEYLVDSFVLPNVHEGIFPAITATTMPDGTGALGIMESFSMASMITAADAALKAADVQALELRLGSGLGGKAYFTFTGDVAAVEAGIEAGKAIAMEKGLLVDIEVIPSPSDRLWTSLY”, which “soluble on expression in E. coli” value is on record?
**A.** soluble

**Q.** Which “soluble on expression in E. coli” value does the source give for “AIAPTELSRTEKKSLIWLFKEHGLRVDGRSALRSRSVSVAVDVLPSTAGSSRVFVGRTNDVLVGINLELRQYNLPAHAEDDAKRGSIAFSVEFCGVASPEFQGRSTEVLEAELVSFLDTAYAASPEFLADLFCREQRLASDPGTLRVCCWDVYVDVLVLGASGGNILDAVTYAVRAALATTVVPSVYWQDSESGGSWELDDRAEYCALLNASNAPLSASGAFIPPLVRDSRTEHDQVTLVAPRWFIIDPCAEEETLAGCFLSVASDSAQHLRAIWKRGSLPVEPDVVLDAAQQCIRDSAYACQEMDHFISELVATEESESVDDVPG” here?
**A.** soluble

**Q.** For “MAPVLGLLENEAKVKSIIRNNNLLEKKFSSFQRQCRDLSRNHALLDSCCSQVKHSATAAEEMSVSDKDVKNHQKKLHSFLAQSTDQVNSTIDKMDFFCSKGNHSLPMEMSVLSITLPYEACIEKSAKKHETMVFSIDEVSSAVQHLENEKVDVEKRQSSTGKLIFQTEKEIMKLKEEIQVNTNLESNIIQLSLEKLSSVKDSSTSENVYKAKLEEEINEARQIYEDALKQDVISQESAMMTQQLESLNELCSDLSDLNKINLTSIEKFPDCNEVCELSDELQTLEKSEAENSESIINLEASLEDIKYQNKKVRKSFDQINQLENAYIVKKEVLTRKKSAIEDVKRQIAESKITLNKLKVTVRAVERSDTPENVESKKEEAFRRLVASSTELPGPESFQRDNVRNVEKSLRFKKWNQRTTSQSSFTSDSTRSIGPIGVHYPGIKLINKDAATPTEVIRKITSELNESATSEDSTFDDDTGTTQDESGLNAFFNSPVSKEQTSMRPQFSMIAHMEKYDTMQAKKNMDKLPDNVRRESEMEHISHNYGRPSEVNRPASVSSKRHDPAASISATSEESILSGTTQDESMLNDFFNPTGTDEKLNDVEFSMTAHVAEFDNRQKAKRAAEQIKKSSSKISGKKEESVADDKSSGNSYVAESEAGFSQGSEENESMDDEDLVAPDDGGLDQTIWDGDD”, which “soluble on expression in E. coli” value is on record?
**A.** not soluble

**Q.** For “MGSDKIHHHHHHMYYLSFSISSNCGLSAAAEHLQNKIVTLNVINSTDFNTVIAFTLARDIDAMRNDFAKDFKTVYIARGKKAAFINGTKISHGIVPAMISEQIIPLYPIFAENGSEWFNAIVLEKEHIDNFVALIEKKNNIETLDYERIRNGDSMFSIIKNANRGIFTLELTETERRIVNSSLRQGFFSWPRSYDLTSISREFGLTKPTILYHIRNAERKVMEALFGS”, which “soluble on expression in E. coli” value is on record?
**A.** not soluble

**Q.** For “MSSEWDNKIIPVIGVPLEARKLPSARIPKKPKETDGNSTETVVNSTEKPEERKEKPPKPPKQKQKQKQNLNNKFLKNLITDTGKPASMNGLFVAEEEAKLTLLEKKAMKIHIEENTLSDPQFPTYTTKHQGRIKFKCRLLWLLNKETFMKRANKPHLANIVVKQAHMEAVPPKQNVNQKKQMKNQEKNKNAKPLMDIKFDEKARSFKQRTGEDYNGGFDISSNYQGSEGSGGYQHIGNTWPNTESQWNYDPSTNGYSTFLASTPDTSTTYQPYQPSEYANFSRQLESSSSSVPVYGGATDPTQTSTSSVISFGVAVHEPISESSASAYDDPTRNHWNPQSATSDYSTVPTSGTSNVFPSYQTSEYSSFPNQTPSSSSSYQQSSQYTPMVPDLINQAINGYTTPQYNQPNQQVNQDFNTNQFSASLASLHSQPLEASEDELLRQKRLMEIEQELHMINAKKMHMQMEAEIRHREMELAKRQQLMELRERELRDRECFENGRTHAGHTGQHNYDNREYSSHHESKNPSVGGNYSSTSRSISINEDPAASHYYGQRVERKKRLGGELARRQGRVYEEVSSPGPLKRSADQSRAGSIQPAEGPSRKQRRRNNKNVQVTVNMEDISDDEEV”, which “soluble on expression in E. coli” value is on record?
**A.** not soluble

**Q.** With “MAHHHHHHMQNLSPACTFNKNEEKIKCPSSTKLGCSDGTKIIQHEINERNMMPEIPNVSLTDENDFTFNKKRHVSSIPKNNNEYWVYPSSQQFYNSLIRKNKDIDKNYIDAVVSVHNEVNEESWKQILKYEHMHKRSCTDVTLHRFLGKFDDLSIKARFRSIFSRGKKKKNNNNNKKSVKGFFFMGRPFDRHDWYVNRCGTQVKYILDYYNDESINDDKNIYIDVRPAMNSFSNVWDRLRYPFYEFYFKYVKKDELFK” as the sequence, how does the “soluble on expression in E. coli” value read?
**A.** not soluble

**Q.** For “MGSDKIHHHHHHMLQNGYVPCSFRISMAGMDVEFNTKNDVIKAYLSRPDDGMRHPGIVVIHEIFGLDDHIRSVADRISREGYVALAPDLFSSHELSAKITREGILESMKFIMSIPPEKQRDDSYRNSLLNSMPEEKRRIMSSTYSALFVNRPTQLLTEYLEYAVDYLKGIGVTSVGSVGFCFGGGMSANLGCTGKVDATVIFYGENPDPIDKVKGMKSVLGLYAGEDHRITSRVPELLAKLIEFSIPVTIKVYPGAYHAFFNDTRPQIYNEAAAKDAWNMMLYFFRTQLGP”, which “soluble on expression in E. coli” value is on record?
**A.** not soluble

**Q.** With “MKVAAKKLATSRMRKDRAAAASPSSDIENSENPSSLASHSSSSGRMTPSKNTRSRKGVSVKDVSNHKITEFFQVRRSNRKTSKQISDEAKHALRDTVLKGTNERLLEVYKDVVKGRGIRTKVNFEKGDFVVEYRGVMMEYSEAKVIEEQYSNDEEIGSYMYFFEHNNKKWCIDATKESPWKGRLINHSVLRPNLKTKVVEIDGSHHLILVARRQIAQGEELLYDYGDRSAETIAKNPWLVNT” as the sequence, how does the “soluble on expression in E. coli” value read?
**A.** not soluble

**Q.** Which “soluble on expression in E. coli” value does the source give for “MLFDTHAHLNAEQYDTDLEEVIERAKAEKVERIVVVGFDRPTITRAMEMIEEYDFIYAAIGWHPVDAIDMTEEDLAWIKELSAHEKVVAIGEMGLDYHWDKSPKDIQKEVFRNQIALAKEVNLPIIIHNRDATEDVVTILKEEGAEAVGGIMHCFTGSAEVARECMKMNFYLSFGGPVTFKNAKKPKEVVKEIPNDRLLIETDCPFLTPHPFRGKRNEPSYVKYVAEQIAELKEMTFEEIASITTENAKRLFRINLEHHHHHH” here?
**A.** not soluble

**Q.** With “MGSDKIHHHHHHLKVLMYSISLAYMIRNLPYASLRAFEAVVRLGSFSAAAGDLGVSQSAVSQHVKSLEEWLGQELLVRGARASKGTRYGTLLAREIDRGLGGISEVCTQIRAASHSDTTVVISCLPGFAFTWLFPRLLRFDLAHPDLSISIATDTGGRPFNPADADIGIRYGHGEFPNLRVDHLMGERLFPVCAPQVAERLTDVASLGQHTLLQDEILNFGSANPSWEYWAEACGVHLPSRARTRRFGQSNLVLQAAIEGLGVALGREPLVLDALTDGRLVRPFTQNVKSPLSYWLVRRKQADDSPKVQEFLKWIKKEAETQPDIPASLNKFA” as the sequence, how does the “soluble on expression in E. coli” value read?
**A.** not soluble
